To fix the notation:
T1: EsCas13d, nuclease-dead (Eubacterium siraeum, UniProt B0MS50, R295A;H300A;R849A;H854A)
T1 sequence: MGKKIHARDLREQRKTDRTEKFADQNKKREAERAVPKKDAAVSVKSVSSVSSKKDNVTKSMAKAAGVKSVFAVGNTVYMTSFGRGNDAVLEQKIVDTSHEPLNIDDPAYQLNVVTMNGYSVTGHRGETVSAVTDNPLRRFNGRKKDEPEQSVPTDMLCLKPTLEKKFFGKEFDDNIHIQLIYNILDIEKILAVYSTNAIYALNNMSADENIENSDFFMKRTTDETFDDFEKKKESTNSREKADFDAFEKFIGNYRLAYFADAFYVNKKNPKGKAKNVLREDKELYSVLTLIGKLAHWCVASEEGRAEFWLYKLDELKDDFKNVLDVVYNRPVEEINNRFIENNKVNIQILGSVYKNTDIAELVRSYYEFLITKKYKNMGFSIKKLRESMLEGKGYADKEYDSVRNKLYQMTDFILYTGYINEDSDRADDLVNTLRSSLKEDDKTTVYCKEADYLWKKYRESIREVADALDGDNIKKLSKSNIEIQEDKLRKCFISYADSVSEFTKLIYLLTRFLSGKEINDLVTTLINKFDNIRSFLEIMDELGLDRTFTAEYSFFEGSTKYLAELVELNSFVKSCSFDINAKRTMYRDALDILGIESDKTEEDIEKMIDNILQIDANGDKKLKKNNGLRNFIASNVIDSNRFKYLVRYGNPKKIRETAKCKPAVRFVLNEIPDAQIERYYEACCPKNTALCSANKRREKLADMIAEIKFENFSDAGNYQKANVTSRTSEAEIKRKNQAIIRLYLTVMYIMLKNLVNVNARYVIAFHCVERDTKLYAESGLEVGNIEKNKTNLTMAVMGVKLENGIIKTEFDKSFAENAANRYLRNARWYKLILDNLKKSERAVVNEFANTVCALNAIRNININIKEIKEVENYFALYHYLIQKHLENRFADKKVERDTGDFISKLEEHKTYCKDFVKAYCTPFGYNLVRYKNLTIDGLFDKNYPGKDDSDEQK

B1: target 1 MT 5'PFS UGG 3'PFS UUG (mixed)
RNA 1: CACCCGUGCAAAAAUGCAGGGGUCUAAAACUGAGCGGAUAACCUCUCUAUGG
RNA 2: GGGAAUGGAUCCACAUCUACGAAUUCUGGCCAUAGAGAGGUUAUCCGCUCAUUGAGAUCGGAAGAGCACACGU
B2: target 1 insG 3' of 9,insG 3' of 1 (mixed)
RNA 1: B1 RNA 1
RNA 2: GGGAAUGGAUCCACAUCUACGAAUUCGUACCAUAGAGAGGUUAGUCCGCUCAGCCGAGAUCGGAAGAGCACACGU
B3: target 1 MT 5'PFS UCC 3'PFS UCU (mixed)
RNA 1: B1 RNA 1
RNA 2: B1 RNA 2 with G28C, G29C, U53C, G54U
B4: target 1 MT 5'PFS AAC 3'PFS AUC (mixed)
RNA 1: B1 RNA 1
RNA 2: B1 RNA 2 with U27A, G28A, G29C, U52A, G54C
B5: target 1 C2G,C6G (mixed)
RNA 1: B1 RNA 1
RNA 2: B1 RNA 2 with U27G, G28U, G29A, C46G, C50G, U52C, U53C
B6: target 1 MT 5'PFS GAG 3'PFS AAG (mixed)
RNA 1: B1 RNA 1
RNA 2: B1 RNA 2 with U27G, G28A, U52A, U53A
B7: target 1 MT 5'PFS GGA 3'PFS UAU (mixed)
RNA 1: B1 RNA 1
RNA 2: B1 RNA 2 with U27G, G29A, U53A, G54U
B8: target 1 MT 5'PFS UCC 3'PFS UCC (mixed)
RNA 1: B1 RNA 1
RNA 2: B1 RNA 2 with G28C, G29C, U53C, G54C
B9: target 1 MT 5'PFS AAC 3'PFS AUA (mixed)
RNA 1: B1 RNA 1
RNA 2: B1 RNA 2 with U27A, G28A, G29C, U52A, G54A
B10: target 1 MT 5'PFS GGA 3'PFS UAC (mixed)
RNA 1: B1 RNA 1
RNA 2: B1 RNA 2 with U27G, G29A, U53A, G54C
B11: target 1 MT 5'PFS GAG 3'PFS AAU (mixed)
RNA 1: B1 RNA 1
RNA 2: B1 RNA 2 with U27G, G28A, U52A, U53A, G54U
B12: target 1 MT 5'PFS UAG 3'PFS CUG (mixed)
RNA 1: B1 RNA 1
RNA 2: B1 RNA 2 with G28A, U52C
B13: target 1 MT 5'PFS ACG 3'PFS CGG (mixed)
RNA 1: B1 RNA 1
RNA 2: B1 RNA 2 with U27A, G28C, U52C, U53G
B14: target 1 MT 5'PFS UGG 3'PFS UUU (mixed)
RNA 1: B1 RNA 1
RNA 2: B1 RNA 2 with G54U
B15: target 1 MT 5'PFS UCC 3'PFS UCG (mixed)
RNA 1: B1 RNA 1
RNA 2: B1 RNA 2 with G28C, G29C, U53C
B16: target 1 MT 5'PFS GCG 3'PFS UUC (mixed)
RNA 1: B1 RNA 1
RNA 2: B1 RNA 2 with U27G, G28C, G54C
B17: target 1 MT 5'PFS UCG 3'PFS UCA (mixed)
RNA 1: B1 RNA 1
RNA 2: B1 RNA 2 with G28C, U53C, G54A
B18: target 1 MT 5'PFS CCA 3'PFS UCA (mixed)
RNA 1: B1 RNA 1
RNA 2: B1 RNA 2 with U27C, G28C, G29A, U53C, G54A
B19: target 1 MT 5'PFS GCG 3'PFS UUA (mixed)
RNA 1: B1 RNA 1
RNA 2: B1 RNA 2 with U27G, G28C, G54A
B20: target 1 MT 5'PFS CUC 3'PFS CUG (mixed)
RNA 1: B1 RNA 1
RNA 2: B1 RNA 2 with U27C, G28U, G29C, U52C
B21: target 1 MT 5'PFS UUU 3'PFS ACC (mixed)
RNA 1: B1 RNA 1
RNA 2: B1 RNA 2 with G28U, G29U, U52A, U53C, G54C
B22: target 1 MT 5'PFS CCA 3'PFS UCU (mixed)
RNA 1: B1 RNA 1
RNA 2: B1 RNA 2 with U27C, G28C, G29A, U53C, G54U
B23: target 1 insA 3' of 13,insA 3' of 4 (mixed)
RNA 1: B1 RNA 1
RNA 2: B2 RNA 2 with G40A, U41G, A43U, G44A, U50A, C51U, A52C, G53A
B24: target 1 MT 5'PFS UCC 3'PFS UCA (mixed)
RNA 1: B1 RNA 1
RNA 2: B1 RNA 2 with G28C, G29C, U53C, G54A
B25: target 1 MT 5'PFS UAG 3'PFS CUA (mixed)
RNA 1: B1 RNA 1
RNA 2: B1 RNA 2 with G28A, U52C, G54A
B26: target 1 insU 3' of 18,insU 3' of 12 (mixed)
RNA 1: B1 RNA 1
RNA 2: GGGAAUGGAUCCACAUCUACGAAUUCGUACCAUAUGAGAGGUUUAUCCGCUCACCGAGAUCGGAAGAGCACACGU
B27: target 1 MT 5'PFS CUC 3'PFS CUA (mixed)
RNA 1: B1 RNA 1
RNA 2: B1 RNA 2 with U27C, G28U, G29C, U52C, G54A
B28: target 1 MT 5'PFS UCG 3'PFS UCC (mixed)
RNA 1: B1 RNA 1
RNA 2: B1 RNA 2 with G28C, U53C, G54C
B29: target 1 MT 5'PFS CCA 3'PFS UCC (mixed)
RNA 1: B1 RNA 1
RNA 2: B1 RNA 2 with U27C, G28C, G29A, U53C, G54C
B30: target 1 MT 5'PFS GCG 3'PFS UUG (mixed)
RNA 1: B1 RNA 1
RNA 2: B1 RNA 2 with U27G, G28C
B31: target 1 MT 5'PFS GGA 3'PFS UAA (mixed)
RNA 1: B1 RNA 1
RNA 2: B1 RNA 2 with U27G, G29A, U53A, G54A
B32: target 1 MT 5'PFS UUU 3'PFS ACU (mixed)
RNA 1: B1 RNA 1
RNA 2: B1 RNA 2 with G28U, G29U, U52A, U53C, G54U
B33: target 1 MT 5'PFS GCG 3'PFS UUU (mixed)
RNA 1: B1 RNA 1
RNA 2: B1 RNA 2 with U27G, G28C, G54U
B34: target 1 MT 5'PFS GUG 3'PFS GUU (mixed)
RNA 1: B1 RNA 1
RNA 2: B1 RNA 2 with U27G, G28U, U52G, G54U
B35: target 1 MT 5'PFS UAG 3'PFS CUC (mixed)
RNA 1: B1 RNA 1
RNA 2: B1 RNA 2 with G28A, U52C, G54C
B36: target 1 MT 5'PFS AAC 3'PFS AUG (mixed)
RNA 1: B1 RNA 1
RNA 2: B1 RNA 2 with U27A, G28A, G29C, U52A
B37: target 1 MT 5'PFS GGA 3'PFS UAG (mixed)
RNA 1: B1 RNA 1
RNA 2: B1 RNA 2 with U27G, G29A, U53A

Numbering of substitutions follows the chain as printed. Numbers in names are those of the source.

This data set addresses T1, EsCas13d, nuclease-dead. Kind of data set: crRNA (strand 1, pre-loaded); Mg2+; 40 mM Tris-HCl pH 7.5, 150 mM NaCl, 6 mM MgCl2, 1 mM DTT, 0.1% Tween-20, 0.2 mg/ml BSA; 25 C; 10 min per concentration, then washed. The settings on record: tags: His6-TwinStrep-SUMO cleaved; N-terminal SNAP kept (SNAP-Surface 488); label: 3' end held by stalled T7 RNA polymerase.
In turn, B1 came in with a Kd of 85 ± 23 nM.
The molecule B2 registered a Kd of 19.2 ± 2.3 nM.
In turn, B3 came in with a Kd of 23 ± 8 nM.
As to B4, the Kd is roughly 25 nM.
In the case of B5, binding was put at a Kd of 4.46 ± 0.23 nM.
Then B6, with roughly 60 nM.
B7 came in with a dissociation constant Kd of 11.7 ± 1.5 nM.
Under B8 stands 12.1 ± 1.9 nM.
Under B9 stands 22 ± 8.5 nM.
Under B10 stands 14 ± 6 nM; under B11, 39 ± 11.5 nM.
In turn, B12 came in with a Kd of 22 ± 5 nM.
B13 came in with a Kd of 57 ± 18 nM.
Take B14: the equilibrium dissociation constant (Kd) was found to be 59 ± 20.5 nM.
Under B15 stands 20.6 ± 7.75 nM.
B16: the affinity, expressed as Kd, was 10.8 ± 2.8 nM.
Under B17 stands 38.5 ± 13.5 nM; under B18, 6.55 ± 1.8 nM.
Under B19 stands 9.05 ± 1.55 nM; under B20, roughly 27 nM; under B21, roughly 46.5 nM.
Under B22 stands 4.9 ± 2.45 nM; under B23, 3.4 ± 0.5 nM.
For the molecule B24, the equilibrium dissociation constant (Kd) is roughly 20 nM.
B25: the affinity, expressed as Kd, was 22.5 ± 4.5 nM.
Molecule B26 displayed a Kd of 26.1 ± 1.7 nM.
Then B27, with roughly 39 nM.
B28 yielded a Kd of 24.5 ± 6.5 nM.
Then B29, with roughly 4.5 nM; and B30, with 5.38 ± 0.505 nM; and B31, with 21.9 ± 4.9 nM.
On to B32, for which the Kd is 21.2 ± 4.1 nM.
Then B33, with 7.85 ± 1 nM; and B34, with 17.9 ± 2.75 nM; and B35, with 29.5 ± 12 nM.
Then B36, with roughly 60 nM.
Molecule B37 displayed a Kd of 17.6 ± 4.05 nM.

For the origin of these results see PMC10786891, “Massively parallel profiling of RNA-targeting CRISPR-Cas13d”.
